Source: publication PMC5832925, “Hypoxia-inducible lipid droplet-associated protein inhibits adipose triglyceride lipase” (Journal of Lipid Research, 2018)
One block for each binder: values may come before it.

What was measured:
[1] = molecular target: T1, sf-GFP-mATGL288 (mouse ATGL residues 1-288 fused to superfolder GFP) (mouse, UniProt Q8BJ56 1-288); experiment: cell-based or functional assay
T1 sequence (looked up): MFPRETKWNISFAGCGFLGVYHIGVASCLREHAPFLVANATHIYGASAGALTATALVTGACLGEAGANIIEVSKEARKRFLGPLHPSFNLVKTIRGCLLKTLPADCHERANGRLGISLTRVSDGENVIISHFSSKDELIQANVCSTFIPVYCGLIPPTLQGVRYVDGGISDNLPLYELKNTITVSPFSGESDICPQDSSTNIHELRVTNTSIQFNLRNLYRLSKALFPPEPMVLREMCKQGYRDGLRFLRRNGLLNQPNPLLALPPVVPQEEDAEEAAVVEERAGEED

[2] = molecular target: T1, sf-GFP-mATGL288 (mouse ATGL residues …); experiment: MST; Monolith NT.115; smt3-tagged hHILPDA 1.1 μM to 487 μM titrated against 0.01 μM sf-GFP-mATGL_288; 20 mM phosphate, 300 mM NaCl, 1 mM EDTA, 1 mM DTT pH 7.0, 1% BSA; room temperature; triplicate; details: both partners purified
[3] = molecular target: T2, sf-GFP-mATGL288 (mouse ATGL residues 1-288 fused to superfolder GFP) (mouse) (UniProt Q8BJ56)
T2 sequence: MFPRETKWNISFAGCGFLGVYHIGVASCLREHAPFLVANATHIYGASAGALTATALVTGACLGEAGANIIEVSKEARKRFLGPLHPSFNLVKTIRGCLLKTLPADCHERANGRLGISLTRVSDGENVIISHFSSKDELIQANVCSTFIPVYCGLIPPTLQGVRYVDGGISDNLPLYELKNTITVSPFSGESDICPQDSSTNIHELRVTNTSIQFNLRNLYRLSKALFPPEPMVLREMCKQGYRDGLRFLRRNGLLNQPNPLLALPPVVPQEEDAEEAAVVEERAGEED

IC50 of inhibition of TGH activity of mATGL288 lysate (without sf-GFP) with CGI-58; HILPDA 44 nM to 44 μM [1]: 1.9 µM
Kd [2]: 247 µM
B1: 6XHis-smt3-TEV-hHILPDA (human hypoxia-inducible lipid droplet-associated protein, full length) (natural protein, UniProt Q9Y5L2 1-63, looked up)
chain: MKHVLNLYLLGVVLTLLSIFVRVMESLEGLLESPSPGTSWTTRSQLANTEPTKGLPDHPSRSM
notes: human HILPDA (Hig-2), 63 amino acids, construct hHILPDA_1-63 in a modified pSUMO vector with 6XHis tag and TEV site; The fusion protein (22 kDa) was used without removal of smt3; a TEV site lies between smt3 and HILPDA; also called smt3-HILPDA fusion protein; source: E. coli BL21-CodonPlus (DE3)-RIL, purified (HisTrap FF, Superdex 200); not shown: smt3, N-terminal, kept

IC50 of inhibition of TGH activity of mATGL288 lysate (without sf-GFP) with CGI-58; HILPDA 1-28 44 nM to 44 μM [3]: 5 µM
Binder: MKHVLNLYLLGVVLTLLSIFVRVMESLE (domain or fragment) [hHILPDA_1-28 (6XHis-smt3-TEV fusion)]

IC50 of inhibition of TGH activity of mATGL288 lysate (without sf-GFP) with CGI-58; HILPDA 1-24 44 nM to 44 μM [3]: 5.4 µM
Binder: MKHVLNLYLLGVVLTLLSIFVRVM (domain or fragment) [hHILPDA_1-24 (6XHis-smt3-TEV fusion)]
